{"source": "patent US12440549B2", "about": "“Polyvalent immunogenicity composition for human papillomavirus” (SinoCellTech Ltd., priority 2019, dated 2025)", "assay": "Expression and solubility of L1 protein in insect cells (cell lysate vs supernatant, SDS-PAGE)", "type": "physicochemical", "conditions": "supernatant after centrifugation of lysate", "method": "FIG. 4: Expression of C-terminal truncated HPV 16L1 (1-474). M: Marker; L: cell lysates; E-S: supernatant collected after centrifugation of the lysates.\nHigh Five cells were infected with baculovirus containing the HPV6 L1: 33C recombinant gene obtained in Example 2 at a ratio of 1:200 (V/V), and the cell precipitate was collected by centrifugation at 1000 g±100 g at room temperature. The cells were broken up by sonication at low temperature for 3 min, centrifuged at >10,000 g for 10 min and the supernatant was collected for SDS-PAGE. Lane 1: Marker (The marker is a mixture of 7 purified proteins with molecular weights ranging from 14.4 kDa to 116 kDa, produced by Thermo Scientific); Lane 2: cell lysate; Lane 3: supernatant of the lysate collected by centrifugation.\nThe inventors attempted to truncate the C-terminus of HPV16 L1 by 31 amino acids and named it HPV16 L1 (1-474) (SEQ ID NO: 27)."}
{"substance": "HPV16 L1 (1-474): Comparative example: HPV16 L1 protein with the C-terminus truncated by 31 amino acids", "values": [{"measurement": "solubility of the expressed L1 protein", "result": "very poor solubility"}, {"measurement": "solubility of the expressed L1 protein", "setting": "listed as HPV 16 L1 (1-474)", "result": "poor solubility"}]}
